Columns and labels:
Type in all cases: biochemical
[1] = test system: Trastuzumab-(GalNAzβ1,4)GlcNAc; assay: Transfer of GDP-FAmP4Biotin to Trastuzumab-(GalNAzβ1,4)GlcNAc by different HpFTs; conditions: donor GDP-FAmP4Biotin 1 mM, enzyme 0.5 mg/mL, 30° C., 3 h; FIG. 4
[2] = test system: Trastuzumab-(Fucα1,6)(GalNAzβ1,4)GlcNAc; assay: Transfer of GDP-FAmP4Biotin to Trastuzumab-(Fucα1,6)(GalNAzβ1,4)GlcNAc by different HpFTs; conditions: donor GDP-FAmP4Biotin 1 mM, enzyme 0.5 mg/mL, 30° C., 3 h; FIG. 3
[3] = test system: Trastuzumab-(Fucα1,6)(Galβ1,4)GlcNAc; assay: Transfer of GDP-FAmP4Biotin to Trastuzumab-(Fucα1,6)(Galβ1,4)GlcNAc by different HpFTs; conditions: donor GDP-FAmP4Biotin 1 mM, enzyme 0.5 mg/mL, 30° C., 1 h; FIG. 2
Description: To 40 mM Tris-HCl (pH 7.5) buffer were added Trastuzumab-(Fucα1,6)(Galβ1,4)GlcNAc (2 mg/mL final), GDP-FAmP4Biotin (1 mM final), MgCl2 (20 mM final), and different HpFT enzymes (HpFT-4HR, HpFT-4HR(M4), HpFT-4HR(M7), HpFT-6HR, HpFT-3HR, HpFT-2HR, HpFT-1HR or HpFT-0HR) (0.5 mg/mL final) in sequence, and the resulting mixed solution was allowed to react at 30° C. for 1 h. Three parallels were set up for each group. After the reaction time point was reached, to the reaction solution was added 10 mM LacNA, and the reaction was terminated by a desalting column (Zeba™ Spin Desalting Columns/2 ml/40K, Thermo Fisher Scientific), and finally mass spectrometry was carried out and % of conversion was calculated. % of conversion=(MAR0 peak intensity*0+MAR1peak intensity*1+MAR2 peak intensity*2)/2* (MAR0 peak intensity+MAR1 peak intensity+MAR2 peak intensity)*100%.

Trastuzumab-G2F = assay: Transfer of GDP-FAmP4Biotin to Trastuzumab-G2F by different HpFTs (% of conversion by MS); conditions: donor GDP-FAmP4Biotin 1 mM, enzyme 0.5 mg/mL, 30° C., 3 h; FIG. 1
Description: To 40 mM Tris-HCl (pH 7.5) buffer were added Trastuzumab-G2F (2 mg/mL final), GDP-FAmP4Biotin (1 mM final), MgCl2 (20 mM final), and different HpFT enzymes (HpFT-4HR, HpFT-4HR(M4), HpFT-4HR(M7), HpFT-6HR, HpFT-3HR, HpFT-2HR, HpFT-1HR, or HpFT-0HR) (0.5 mg/mL final) in sequence, and the resulting mixed solution was allowed to react at 30° C. for 3 h. Three parallels were set up for each group. After the reaction time point was reached, to the reaction solution was added 10 mM LacNAc (N-acetyl-D-lactosamine), and the reaction was terminated by a desalting column (Zeba™ Spin Desalting Columns/2 ml/40K, Thermo Fisher Scientific), and finally mass spectrometry was carried out and % of conversion was calculated. % of conversion=(MAR0 peak intensity*0+MAR1peak intensity*1+MAR2 peak intensity*2+MAR3 peak intensity*3+MAR4 peak intensity*4)/4* (MAR0 peak intensity+MAR1 peak intensity+MAR2 peak intensity+MAR3 peak intensity+MAR4 peak intensity)*100%.

B1: HpFT-0HR: HpFT variant: catalytically active domain and C-terminus fused His tag, no heptapeptide repeat (protein)
chain: MFQPLLDAFIESASIEKMVSKSPPPPLKIAVANWWGDEEIKEFKKSVLYFILSQRYAITLHQNPNESSDLVFSNPLGAARKILSYQNTKRVFYTGENESPNFNLFDYAIGFDELDFNDRYLRMPLYYAHLHYEAELVNDTTAPYKLKDNSLYALKKPSHHFKENHPNLCAVVNDESDLLKRGFASFVASNANAPMRNAFYDALNSIEPVTGGGSVRNTLGYKVGNKSEFLSQYKFNLCFENSQGYGYVTEKILDAYFSHTIPIYWGSPSVAKDFNPKSFVNVHDFNNFDEAIDYIKYLHTHPNAYLDMLYENPLNTLDGKAYFYQDLSFKKILDFFKTILENDTIYHNNPFIFYRDLHEPLISILEHHHHHH
modifications: Catalytically active domain of Helicobacter pylori Alpha-(1,3)-fucosyltransferase (GenBank No.AAD07710.1) with a C-terminal His tag
For B1, the “catalytic activity as compared with HpFT-4HR (% of conversion)” value (from here on “catalytic activity … (% of conversion)”) [1] was “significantly decreased activity”, the “catalytic activity … (% of conversion)” value [2] was “significantly decreased activity” and the “catalytic activity … (% of conversion)” value [3] was “significantly decreased activity”.

B2: HpFT-6HR: HpFT variant: catalytically active domain, six heptapeptide repeat sequences and C-terminus fused His tag (protein)
chain: MFQPLLDAFIESASIEKMVSKSPPPPLKIAVANWWGDEEIKEFKKSVLYFILSQRYAITLHQNPNESSDLVFSNPLGAARKILSYQNTKRVFYTGENESPNFNLFDYAIGFDELDFNDRYLRMPLYYAHLHYEAELVNDTTAPYKLKDNSLYALKKPSHHFKENHPNLCAVVNDESDLLKRGFASFVASNANAPMRNAFYDALNSIEPVTGGGSVRNTLGYKVGNKSEFLSQYKFNLCFENSQGYGYVTEKILDAYFSHTIPIYWGSPSVAKDFNPKSFVNVHDFNNFDEAIDYIKYLHTHPNAYLDMLYENPLNTLDGKAYFYQDLSFKKILDFFKTILENDTIYHNNPFIFYRDLHEPLISIDDLRVNYDDLRVNYDDLRVNYDDLRVNYDDLRVNYDDLRVNYLEHHHHHH
modifications: Catalytically active domain of Helicobacter pylori Alpha-(1,3)-fucosyltransferase (GenBank No.AAD07710.1) with 6 heptapeptide repeats and a C-terminal His tag
B2 was tested, and the “catalytic activity … (% of conversion)” value [1] was “little activity change”, the “catalytic activity … (% of conversion)” value [2] was “little activity change” and the “catalytic activity … (% of conversion)” value [3] was “no obvious activity change”.

B3: HpFT-1HR: H. pylori α-1,3-fucosyltransferase variant: catalytically active domain, a heptapeptide repeat sequence and C-terminus fused His tag (protein)
chain: MFQPLLDAFIESASIEKMVSKSPPPPLKIAVANWWGDEEIKEFKKSVLYFILSQRYAITLHQNPNESSDLVFSNPLGAARKILSYQNTKRVFYTGENESPNFNLFDYAIGFDELDFNDRYLRMPLYYAHLHYEAELVNDTTAPYKLKDNSLYALKKPSHHFKENHPNLCAVVNDESDLLKRGFASFVASNANAPMRNAFYDALNSIEPVTGGGSVRNTLGYKVGNKSEFLSQYKFNLCFENSQGYGYVTEKILDAYFSHTIPIYWGSPSVAKDFNPKSFVNVHDFNNFDEAIDYIKYLHTHPNAYLDMLYENPLNTLDGKAYFYQDLSFKKILDFFKTILENDTIYHNNPFIFYRDLHEPLISIDDLRVNYLEHHHHHH
modifications: Catalytically active domain of Helicobacter pylori Alpha-(1,3)-fucosyltransferase (GenBank No.AAD07710.1) with 1 heptapeptide repeat and a C-terminal His tag
B3 was tested, and the “catalytic activity among the HpFT variants” value [1] was “relatively high catalytic activity”, the “catalytic activity … (% of conversion)” value [1] was “significantly improved catalytic activity” and the “catalytic activity among the HpFT variants” value [2] was “relatively high catalytic activity”. For the same molecule, the “catalytic activity … (% of conversion)” value [2] was “significantly improved catalytic activity”, the “catalytic activity … (% of conversion)” value (Trastuzumab-G2F) was “significantly improved catalytic activity” and the “catalytic activity … (% of conversion)” value [3] was “significantly improved catalytic activity”.

B4: HpFT-3HR: H. pylori α-1,3-fucosyltransferase variant: catalytically active domain, three heptapeptide repeat sequences and C-terminus fused His tag (protein)
chain: MFQPLLDAFIESASIEKMVSKSPPPPLKIAVANWWGDEEIKEFKKSVLYFILSQRYAITLHQNPNESSDLVFSNPLGAARKILSYQNTKRVFYTGENESPNFNLFDYAIGFDELDFNDRYLRMPLYYAHLHYEAELVNDTTAPYKLKDNSLYALKKPSHHFKENHPNLCAVVNDESDLLKRGFASFVASNANAPMRNAFYDALNSIEPVTGGGSVRNTLGYKVGNKSEFLSQYKFNLCFENSQGYGYVTEKILDAYFSHTIPIYWGSPSVAKDFNPKSFVNVHDFNNFDEAIDYIKYLHTHPNAYLDMLYENPLNTLDGKAYFYQDLSFKKILDFFKTILENDTIYHNNPFIFYRDLHEPLISIDDLRVNYDDLRVNYDDLRVNYLEHHHHHH
modifications: Catalytically active domain of Helicobacter pylori Alpha-(1,3)-fucosyltransferase (GenBank No.AAD07710.1) with 3 heptapeptide repeats and a C-terminal His tag
B4 was tested, and the “catalytic activity … (% of conversion)” value [1] was “significantly improved catalytic activity”, the “catalytic activity … (% of conversion)” value [2] was “significantly improved catalytic activity” and the “catalytic activity … (% of conversion)” value (Trastuzumab-G2F) was “significantly improved catalytic activity”. For the same molecule, the “catalytic activity … (% of conversion)” value [3] was “significantly improved catalytic activity”.

Source: US20240335558A1, “ISOLATED POLYPEPTIDE AND USE THEREOF” (GLYCO-THERAPY BIOTECHNOLOGY CO., LTD., priority 2021, published 2024)
